Values of other authors as cited in paper PMC3237005.

How the values were obtained:
[1] = target: Edema factor (EF) EFN (Bacillus anthracis) (UniProt P40136)
[2] = target: Lethal factor (LF) LFN (Bacillus anthracis) (UniProt P15917)

Protective antigen (PA63 heptamer) PA63 (from UniProt P13423)
Kd [1]: 1 nM
Kd [2]: 1 nM
